US20130064834A1 (published 2013)
Blank lines part the entries; values can stand above or below the binder they belong to.

Legend:
Human PCSK9-myc-myc-his [1] = target: T1, Human PCSK9-myc-myc-his (human, UniProt Q8NBP7 31-692); test: competition ELISA vs hLDLR-ecto, pH 7.2
T1 construct: also called hPCSK9-mmh; hPCSK9
Procedure: (§1) Briefly, hLDLR-ecto, hLDLR EGF-A-hFc or hLDLR EGF-AB-hFc, each at 2 μg/ml, was coated on a 96-well plate in PBS buffer overnight at 4° C., and nonspecific binding sites blocked with BSA. […] The equilibrated sample solutions were transferred to receptor or receptor fragment coated plates.

hPCSK9(D374Y)-mmh [2] = target: T2, hPCSK9(D374Y)-mmh (human, UniProt Q8NBP7 31-692); test: SPR, mAb amine-coupled, 25C, pH 7.4
T2 construct: also called hPCSK(D374Y)-mmh
Source text: (§2) Briefly, mAbs were immobilized onto BIACORE™ CM5 sensor chips via amine coupling.

Human PCSK9-myc-myc-his [3] = target: T1, Human PCSK9-myc-myc-his; test: SPR, mAb amine-coupled, 25C, pH 7.4
Source text: as §2

[4] = target: T3, cynomolgus monkey (Macaca fascicularis) PCSK9, myc-myc-his tagged (cynomolgus monkey (Macaca fascicularis), UniProt A8T662 31-692 (Macaca nemestrina entry), limits assumed); test: SPR, mAb amine-coupled, 25C, pH 7.4
T3 construct: also called mfPCSK9-mmh; mfPCSK9
T3 sequence (A8T662 31-692 limits assumed): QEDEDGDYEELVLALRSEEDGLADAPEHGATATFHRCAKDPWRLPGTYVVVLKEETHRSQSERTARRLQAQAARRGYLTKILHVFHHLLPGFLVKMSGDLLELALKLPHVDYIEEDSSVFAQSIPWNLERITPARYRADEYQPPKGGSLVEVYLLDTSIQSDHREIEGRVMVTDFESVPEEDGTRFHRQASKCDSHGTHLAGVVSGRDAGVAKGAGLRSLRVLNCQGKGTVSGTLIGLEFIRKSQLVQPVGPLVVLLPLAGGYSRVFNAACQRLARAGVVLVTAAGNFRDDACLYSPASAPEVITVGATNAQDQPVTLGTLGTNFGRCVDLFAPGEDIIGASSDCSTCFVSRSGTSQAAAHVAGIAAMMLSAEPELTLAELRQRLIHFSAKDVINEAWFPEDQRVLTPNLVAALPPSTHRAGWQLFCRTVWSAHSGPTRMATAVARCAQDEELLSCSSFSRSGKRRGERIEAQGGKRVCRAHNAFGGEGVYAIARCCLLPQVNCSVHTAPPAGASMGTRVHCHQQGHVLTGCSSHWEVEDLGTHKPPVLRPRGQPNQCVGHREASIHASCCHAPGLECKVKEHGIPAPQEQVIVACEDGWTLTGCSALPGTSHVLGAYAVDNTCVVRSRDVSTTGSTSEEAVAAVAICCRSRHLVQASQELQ
Source text: as §2

Human PCSK9-myc-myc-his [5] = target: T1, Human PCSK9-myc-myc-his; test: SPR, antigen captured at high density, pH 5.5, 25C
Human PCSK9-myc-myc-his [6] = target: T1, Human PCSK9-myc-myc-his; test: competition ELISA vs EGF-A-hFc, pH 7.2
Procedure: as §1

hPCSK9(D374Y)-mmh [7] = target: T2, hPCSK9(D374Y)-mmh; test: competition ELISA vs EGF-A-hFc, pH 5.5
Procedure: as §1

hPCSK9(D374Y)-mmh [8] = target: T2, hPCSK9(D374Y)-mmh; test: SPR, mAb amine-coupled, 37C, pH 5.5
Source text: as §2

Human PCSK9-myc-myc-his [9] = target: T1, Human PCSK9-myc-myc-his; test: SPR, mAb amine-coupled, 37C, pH 5.5
Source text: as §2

[10] = target: T3, cynomolgus monkey (Macaca fascicularis) …; test: SPR, mAb amine-coupled, 37C, pH 5.5
Source text: as §2

[11] = target: T4, rat (Rattus norvegicus) PCSK9, myc-myc-his tagged (rat (Rattus norvegicus), UniProt P59996 31-691); test: ELISA, mAb coated, 1.7 nM antigen
T4 construct: also called rPCSK9-mmh; rPCSK9
T4 sequence (P59996 31-691 limits assumed): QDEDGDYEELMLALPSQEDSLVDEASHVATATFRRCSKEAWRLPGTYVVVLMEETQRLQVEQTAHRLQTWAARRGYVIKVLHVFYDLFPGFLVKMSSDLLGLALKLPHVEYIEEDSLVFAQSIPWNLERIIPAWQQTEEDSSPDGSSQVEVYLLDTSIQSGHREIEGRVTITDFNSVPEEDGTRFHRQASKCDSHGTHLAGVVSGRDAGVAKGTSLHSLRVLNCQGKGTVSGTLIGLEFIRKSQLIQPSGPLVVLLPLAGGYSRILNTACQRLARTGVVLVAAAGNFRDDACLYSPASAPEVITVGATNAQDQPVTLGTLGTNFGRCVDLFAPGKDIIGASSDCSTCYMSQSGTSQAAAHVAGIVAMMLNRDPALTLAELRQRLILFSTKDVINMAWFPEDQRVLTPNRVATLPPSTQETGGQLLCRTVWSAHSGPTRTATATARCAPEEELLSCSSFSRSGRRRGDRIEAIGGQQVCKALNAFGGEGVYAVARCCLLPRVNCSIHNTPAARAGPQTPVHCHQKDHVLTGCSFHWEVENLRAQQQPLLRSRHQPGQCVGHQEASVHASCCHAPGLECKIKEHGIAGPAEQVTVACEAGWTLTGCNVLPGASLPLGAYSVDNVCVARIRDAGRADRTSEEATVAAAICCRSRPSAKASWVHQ

hPCSK9(D374Y)-mmh [12] = target: T2, hPCSK9(D374Y)-mmh; test: ELISA, mAb coated, 1.7 nM antigen
Human PCSK9-myc-myc-his [13] = target: T1, Human PCSK9-myc-myc-his; test: ELISA, mAb coated, 1.7 nM antigen
[14] = target: T5, mouse PCSK9, myc-myc-his tagged (mouse, UniProt Q80W65 35-694); test: ELISA, mAb coated, 1.7 nM antigen
T5 construct: also called mPCSK9-mmh; mPCSK9

[15] = target: Chimeric protein #2 (hPro-mCat-mC-term-mmh) (human; mouse, UniProt Q80W65 19-694); test: ELISA, mAb coated, 1.7 nM antigen
[16] = target: T3, cynomolgus monkey (Macaca fascicularis) …; test: ELISA, mAb coated, 1.7 nM antigen
[17] = target: T6, tagged rhesus monkey (Macaca mulata) PCSK9 (rhesus monkey (Macaca mulata), UniProt A8T666 31-692); test: ELISA, mAb coated, 1.7 nM antigen
T6 construct: also called mmPCSK9-mmh; mmPCSK9
T6 sequence (A8T666 31-692 limits assumed): as the sequence (A8T662 31-692 limits assumed) above, with A607P, E639K counted along it

[18] = target: T7, Chimeric protein #1 (mPro-hCat-mC-term-mmh) (mouse; human, UniProt Q80W65 35-694); test: ELISA, mAb coated, 1.7 nM antigen
T7 chain: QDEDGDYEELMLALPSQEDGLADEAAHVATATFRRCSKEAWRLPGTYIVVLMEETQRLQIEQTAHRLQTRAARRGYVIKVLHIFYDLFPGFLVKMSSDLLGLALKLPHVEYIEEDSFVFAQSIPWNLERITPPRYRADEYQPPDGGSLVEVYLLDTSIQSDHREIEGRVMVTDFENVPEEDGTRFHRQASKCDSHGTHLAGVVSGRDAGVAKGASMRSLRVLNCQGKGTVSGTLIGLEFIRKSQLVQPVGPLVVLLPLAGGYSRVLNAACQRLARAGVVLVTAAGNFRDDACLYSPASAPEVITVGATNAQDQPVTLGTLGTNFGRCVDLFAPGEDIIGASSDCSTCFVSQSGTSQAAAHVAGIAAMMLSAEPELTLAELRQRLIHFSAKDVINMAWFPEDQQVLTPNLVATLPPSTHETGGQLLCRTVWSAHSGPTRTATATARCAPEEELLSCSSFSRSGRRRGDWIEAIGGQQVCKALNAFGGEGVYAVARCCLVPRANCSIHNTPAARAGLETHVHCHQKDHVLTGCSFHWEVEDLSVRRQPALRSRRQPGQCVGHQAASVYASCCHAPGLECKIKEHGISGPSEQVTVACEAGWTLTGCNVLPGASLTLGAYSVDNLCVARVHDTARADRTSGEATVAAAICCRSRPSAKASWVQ

Human PCSK9-myc-myc-his [19] = target: T1, Human PCSK9-myc-myc-his; test: cell-based or functional assay

IC50 (Human PCSK9-myc-myc-his [1]): 0.144 nM | Kd (hPCSK9(D374Y)-mmh [2]): 1.31 nM | T1/2 (hPCSK9(D374Y)-mmh [2]): 46 min | Kd (Human PCSK9-myc-myc-his [3]): 1.1 nM | T1/2 (Human PCSK9-myc-myc-his [3]): 76 min | Kd [4]: 2.17 nM | T1/2 [4]: 31 min | Kd (Human PCSK9-myc-myc-his [5]): 1.18 nM | T1/2 (Human PCSK9-myc-myc-his [5]): 26 min | IC50 (Human PCSK9-myc-myc-his [6]): 0.146 nM | IC50 (hPCSK9(D374Y)-mmh [7]): 3.46 nM | Kd (hPCSK9(D374Y)-mmh [8]): 28 nM | T1/2 (hPCSK9(D374Y)-mmh [8]): 1 min | Kd (Human PCSK9-myc-myc-his [9]): 11.9 nM | T1/2 (Human PCSK9-myc-myc-his [9]): 1 min | Kd [10]: 65.2 nM | T1/2 [10]: 0.1 min | OD [11]: < 0.7 od | OD (hPCSK9(D374Y)-mmh [12]): > 1.5 od | OD (Human PCSK9-myc-myc-his [13]): > 1.5 od | OD [14]: < 0.7 od | OD [15]: > 1.5 od | OD [16]: > 1.5 od | OD [17]: > 1.5 od | OD [18]: > 1.5 od | IC50, LDL uptake in HepG2 cells with 50 nM hPCSK9-mmh (Human PCSK9-myc-myc-his [19]): 22.1 nM
B1: H1M300N (antibody, V domains shown)
VH: EMQLVESGGGLVQPGGSLRLSCAASGFTFSSHWMKWVRQAPGKGLEWVANINQDGSEKYYVDSVKGRFTISRDNAKNSLFLQMNSLRAEDTAVYYCARDIVLMVYDMDYYYYGMDVWGQGTTVTVSS
VL: not shown
notes: Fully human version made in CHO cells

B2: H1H316P (antibody, V domains shown)
VH: EVQLVESGGGLVQPGGSLRLSCAASGFTFNNYAMNWVRQAPGKGLDWVSTISGSGGTTNYADSVKGRFIISRDSSKHTLYLQMNSLRAEDTAVYYCAKDSNWGNFDLWGRGTLVTVSS
VL: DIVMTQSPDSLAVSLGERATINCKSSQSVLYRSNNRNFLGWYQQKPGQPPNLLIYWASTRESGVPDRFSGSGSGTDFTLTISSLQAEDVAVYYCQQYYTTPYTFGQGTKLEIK
notes: Fully human mAb made in CHO cells; also called mAb316P
IC50 (Human PCSK9-myc-myc-his [1]): < 0.125 nM | Kd (hPCSK9(D374Y)-mmh [2]): 2.49 nM | T1/2 (hPCSK9(D374Y)-mmh [2]): 15 min | Kd (Human PCSK9-myc-myc-his [3]): 1.26 nM | T1/2 (Human PCSK9-myc-myc-his [3]): 36 min | Kd [4]: 1.42 nM | T1/2 [4]: 42 min | Kd (Human PCSK9-myc-myc-his [5]): 0.144 nM | T1/2 (Human PCSK9-myc-myc-his [5]): 83 min | IC50 (Human PCSK9-myc-myc-his [6]): < 0.125 nM | IC50 (hPCSK9(D374Y)-mmh [7]): 1.12 nM | Kd (hPCSK9(D374Y)-mmh [8]): 1.56 nM | T1/2 (hPCSK9(D374Y)-mmh [8]): 5 min | Kd (Human PCSK9-myc-myc-his [9]): 0.142 nM | T1/2 (Human PCSK9-myc-myc-his [9]): 11 min | Kd [10]: 0.044 nM | T1/2 [10]: 5 min | OD [11]: > 1.5 od | OD (hPCSK9(D374Y)-mmh [12]): > 1.5 od | OD (Human PCSK9-myc-myc-his [13]): > 1.5 od | OD [14]: > 1.5 od | OD [15]: > 1.5 od | OD [16]: > 1.5 od | OD [17]: > 1.5 od | OD [18]: > 1.5 od | IC50, LDL uptake in HepG2 cells with 50 nM hPCSK9-mmh (Human PCSK9-myc-myc-his [19]): 21.3 nM
